Test results reported in patent US10941182 (Amgen, dated 2021).
Starred links: 1 amine or outer side, 2 acyl side, 3 side chain; linkers in the order of their positions; H or OH if unused. Non-standard residues stand in square brackets, D forms with d. Primed or numbered codes have the meaning given here. *: point of attachment. AC4Abu = α-carboxy-4-aminobutyric acid, O=C(C(CCN[*:1])C(=O)[*:3])[*:2]; dBip = N[C@H](Cc1ccc(-c2ccccc2)cc1)C(=O)O; Oic = O=C(O)[C@@H]1C[C@@H]2CCCC[C@@H]2N1; Phe(4-Cl) = N[C@@H](Cc1ccc(Cl)cc1)C(=O)O; Phe(4-I) = N[C@@H](Cc1ccc(I)cc1)C(=O)O; 2Nal = N[C@@H](Cc1ccc2ccccc2c1)C(=O)O; NMehArg = CN[C@@H](CCCCNC(=N)N)C(=O)O; NMeR = CN[C@@H](CCCNC(=N)N)C(=O)O; Tridecanoyl = CCCCCCCCCCCCC(=O)*; hArg = N=C(N)NCCCC[C@H](N)C(=O)O; Cha = N[C@@H](CC1CCCCC1)C(=O)O; NMeL = CN[C@@H](CC(C)C)C(=O)O; αMeP = C[C@@]1(C(=O)O)CCCN1; AC4Abu″ = not defined here; Nle = CCCC[C@H](N)C(=O)O; AEEA = NCCOCCOCC(=O)O; Aib = CC(C)(N)C(=O)O

T1: rat APJ receptor (rat, UniProt Q9JHG3 1-377)
T1 sequence (looked up): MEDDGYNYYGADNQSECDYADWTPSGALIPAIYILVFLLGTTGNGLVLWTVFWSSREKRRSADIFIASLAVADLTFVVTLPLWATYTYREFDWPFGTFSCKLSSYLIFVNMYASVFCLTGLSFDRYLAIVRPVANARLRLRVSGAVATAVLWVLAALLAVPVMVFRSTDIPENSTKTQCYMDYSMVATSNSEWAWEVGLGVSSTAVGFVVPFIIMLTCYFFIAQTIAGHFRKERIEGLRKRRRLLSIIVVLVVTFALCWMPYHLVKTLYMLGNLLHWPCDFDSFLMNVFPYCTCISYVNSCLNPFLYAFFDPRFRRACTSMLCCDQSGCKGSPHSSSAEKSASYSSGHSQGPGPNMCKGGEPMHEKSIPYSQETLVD

T2: rat APJ receptor (rat, UniProt Q9JHG3 1-377)
T2 sequence (looked up): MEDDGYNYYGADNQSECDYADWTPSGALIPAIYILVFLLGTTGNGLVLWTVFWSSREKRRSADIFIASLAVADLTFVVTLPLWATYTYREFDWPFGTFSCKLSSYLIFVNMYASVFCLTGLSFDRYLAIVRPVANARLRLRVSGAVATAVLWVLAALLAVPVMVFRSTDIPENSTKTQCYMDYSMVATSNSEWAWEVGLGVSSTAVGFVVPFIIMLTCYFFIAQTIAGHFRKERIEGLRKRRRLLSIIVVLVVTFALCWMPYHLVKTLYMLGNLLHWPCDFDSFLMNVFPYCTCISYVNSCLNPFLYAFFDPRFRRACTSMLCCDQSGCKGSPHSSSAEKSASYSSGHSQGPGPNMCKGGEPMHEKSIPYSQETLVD


Columns and labels:
[1] = molecular target: T1, rat APJ receptor; assay: cell-based or functional assay
[2] = molecular target: T2, rat APJ receptor; assay: cell-based or functional assay; remark: listed apart in the source

| Binder | EC50 Rat APJ Receptor (GTPγS assay) [1] [pM] | EC50 Rat APJ Receptor [2] [pM] |
| --- | --- | --- |
| XXXQRPRLSHKGPXPF ({TDA}[AC4Abu][Aeea][Aeea]QRP[NMeArg][BLeu]SHKGP[Nle]P[4-Cl-F]{COOH}) [Apelin polypeptide SEQ ID NO: 458] | 120 | – |
| XXXQRPRLSHKGPXPF ({TDA}[AC4Abu][Aeea][Aeea]QRP[NMeArg]LSHKGP[Nle]P[4-Cl-F]{COOH}) [Apelin polypeptide SEQ ID NO: 287] | 242 | – |
| Tridecanoyl-[AC4Abu″][AEEA][AEEA][dR][dQ][hArg]P[hArg][Cha]SHKG[Oic][Nle]P[Phe(4-Cl)]-OH (reading uncertain; also: printed as {TDA}[AC4Abu][Aeea][Aeea]rq[hArg]P[hArg][Cha]SHKG[Oic][Nle]P[4-Cl-F]{COOH}) [Apelin polypeptide SEQ ID NO: 481] | 341 | – |
| Tridecanoyl-[AC4Abu″][AEEA][AEEA]QRP[NMehArg]LSHKGP[Nle]P[2Nal]-OH (reading uncertain; also: printed as {TDA}[AC4Abu][Aeea][Aeea]QRP[NMehArg]LSHKGP[Nle]P[2Nal]{COOH}) [Apelin polypeptide SEQ ID NO: 471] | 97.4 | – |
| Ac-[hArg][dR]Q[hArg]E[dR][NMeL]SHKG[Oic][Phe(4-I)]P[dBip]-OH [SEQ ID NO: 78] | – | 871 |
| XXXQRPRLSHKGPXPF ({TDA}[AC4Abu][Aeea][Aeea]QRP[NMeArg]LSHKGP[Nle][BhPro][4-Cl-F]{COOH}) [Apelin polypeptide SEQ ID NO: 426] | 382 | – |
| XXXQRPRLSHKGPXPF ({TDA}[AC4Abu][Aeea][Aeea]QrP[NMehArg][aMeLeu]SHKGP[Nle]P[4-Cl-F]{COOH}) [Apelin polypeptide SEQ ID NO: 456] | 178 | – |
| XXXQRPRLSHKGPXPF ({TDA}[AC4Abu][Aeea][Aeea]Q[hArg]P[NMehArg]LSHKGP[Nle]P[4-Cl-F]{COOH}) [Apelin polypeptide SEQ ID NO: 483] | 229 | – |
| XXXQRPRLSHKGPXPF ({DDDA}[AC4Abu][Aeea][Aeea]QRP[NMeArg]LSHKGP[Nle]P[4-Cl-F]{COOH}) [SEQ ID NO: 510] | – | 903 |
| XXXQRPRLSHKGPXPF ({ODDA}[AC4Abu][Aeea][Aeea]QRP[NMeArg]LSHKGP[Nle]P[4-Cl-F]{COOH}) [SEQ ID NO: 513] | – | 6120 |
| XXXQRPRLSHKGPXPF ({TDA}[AC4Abu][Aeea][Aeea]QRP[NMeArg][aMeLeu]SHKGP[Nle]P[4-Cl-F]{COOH}) [Apelin polypeptide SEQ ID NO: 457] | 56.4 | – |
| Tridecanoyl-[AC4Abu″][AEEA][AEEA][dQ][hArg][Aib][dR][Cha]SHKG[Oic][Nle]P[Phe(4-Cl)]-OH (reading uncertain; also: printed as {TDA}[AC4Abu][Aeea][Aeea]q[hArg][Aib]r[Cha]SHKG[Oic][Nle]P[4-Cl-F]{COOH}) [Apelin polypeptide SEQ ID NO: 454] | 5350 | – |
| XXXQRPRLSHKGPXPF ({Butanoyl}[AC4Abu][Aeea][Aeea]QRP[NMeArg]LSHKGP[Nle]P[4-Cl-F]{COOH}) [SEQ ID NO: 491] | – | 453 |
| Tridecanoyl-[AC4Abu″][AEEA][AEEA]Q[hArg]P[NMeR][Cha]SHKGP[Nle]P[Phe(4-Cl)]-OH (reading uncertain) [Apelin polypeptide SEQ ID NO: 408] | 184 | – |
| Tridecanoyl-[AC4Abu″][AEEA][AEEA]QRP[NMeR][Cha]SHKG[αMeP][Nle]P[Phe(4-Cl)]-OH (reading uncertain) [Apelin polypeptide SEQ ID NO: 418] | 253 | – |
| XXXQRPRLSHKGPXPF ({Myristyl-NH}[AC4Abu][Aeea][Aeea]QRP[NMeArg]LSHKGP[Nle]P[4-Cl-F]{COOH}) [SEQ ID NO: 592] | – | 598 |
| Tridecanoyl-[AC4Abu][AEEA][AEEA]QRP[NMeR][Cha]SAKG[Oic][Nle]P[Phe(4-Cl)]-OH (SMILES CCCCCCCCCCCCC(=O)NCCC(C(=O)O)C(=O)NCCOCCOCC(=O)NCCOCCOCC(=O)N[C@@H](CCC(N)=O)C(=O)N[C@@H](CCCNC(=N)N)C(=O)N1CCC[C@H]1C(=O)N(C)[C@@H](CCCNC(=N)N)C(=O)N[C@@H](CC1CCCCC1)C(=O)N[C@@H](CO)C(=O)N[C@@H](C)C(=O)N[C@@H](CCCCN)C(=O)NCC(=O)N1[C@H](C(=O)N[C@@H](CCCC)C(=O)N2CCC[C@H]2C(=O)N[C@@H](Cc2ccc(Cl)cc2)C(=O)O)C[C@@H]2CCCC[C@@H]21) [Apelin polypeptide SEQ ID NO: 419] | 379 | – |
| XXXQRPRLSHKGPXPF ({AdpA}[AC4Abu][Aeea][Aeea]QrP[hArg][aMeLeu]SHKGP[Nle]P[4-Cl-F]{COOH}) [SEQ ID NO: 515] | – | 5940 |
| XXXQRPRLSHKGPXPF ({Palm}[AC4Abu][Aeea][Aeea]QRP[NMeArg]LSHKGP[Nle]P[4-Cl-F]{COOH}) [SEQ ID NO: 593] | – | 231 |
| XXXQRPRLSHKGPXPF ({TDA}[AC4Abu][Aeea][Aeea]QRP[NMeArg][NMeLeu]SHKGP[Nle]P[4-Cl-F]{COOH}) [Apelin polypeptide SEQ ID NO: 459] | 230 | – |
